# Laboratory results: paper doi:10.1101/2022.12.23.521728 (bioRxiv, 2022)
# B1: ATP synthase F1 γ subunit of G. stearothermophilus FoF1 (natural protein)
# chain: ASLRDIKTRINATKKTSQITKAMEMVLTSKLNRAEKREIVRPYMEKIQEVVANVALAARASHPMLVSRPVKKTGYLVITSDRGLAGAYNSNVLRLVYQTIQKRHASPDEYAIIVIGRVGLSFFRKRNMPVILDITRLPDQPSFADIKEIARKTVGLFADGTFDELYMYYNHYVSAIQQEVTERKLLPLTDLAENKQRTVYEFEPSQEEILDVLLPQYAESLIYGALLDAKASEHAARMTAMKNATDNANELIRTLTLSYNRARQAAITQEITEIVAGANALQ
# Biological target: ATP synthase F1 α subunit of G. stearothermophilus FoF1 (G. stearothermophilus, UniProt P09219 1-502)
# Test: cryo-EM structure
# ATP synthase F1 α subunit of G. stearothermophilus FoF1, sequence (P09219 whole entry): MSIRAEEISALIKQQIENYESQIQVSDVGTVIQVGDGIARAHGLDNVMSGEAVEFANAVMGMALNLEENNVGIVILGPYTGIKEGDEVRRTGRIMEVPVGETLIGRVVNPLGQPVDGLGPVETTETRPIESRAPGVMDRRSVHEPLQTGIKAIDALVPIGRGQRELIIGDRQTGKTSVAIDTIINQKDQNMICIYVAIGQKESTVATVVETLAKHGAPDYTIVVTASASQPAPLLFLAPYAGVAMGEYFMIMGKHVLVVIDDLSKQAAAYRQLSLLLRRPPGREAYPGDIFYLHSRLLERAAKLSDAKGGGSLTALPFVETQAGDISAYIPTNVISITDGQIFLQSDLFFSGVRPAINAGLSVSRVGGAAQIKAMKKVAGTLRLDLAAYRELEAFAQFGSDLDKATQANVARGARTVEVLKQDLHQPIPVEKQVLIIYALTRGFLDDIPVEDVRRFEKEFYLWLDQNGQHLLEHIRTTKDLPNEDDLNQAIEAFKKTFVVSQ
binder,measurement,value
B1,binding result,binds
